# B1: KCNAB2 (parent)
# chain: IPPYSRASLKGYQWLKDKILSEEG
# B2: SPSB4 (parent)
# chain: LDMDEGTLSFIVDGQYLGVAFRGL
# Variants of: B1
# Assay: protein stability index of a GFP-peptide fusion (GPS, HEK-293T) (PSI 1-6); higher = more stable
# Conditions: c terminus: a fixed tail appended
# 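Also: lentivirally expressed fusions sorted by FACS into six bins by GFP to DsRed ratio, PSI derived from sequencing read proportions per bin multiplied by bin number.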
row,Variant,protein stability index
1,IPPYSHASLKGYQWLKDKILSEEG [R6H],2.2
2,IPPYSPASLKGYQWLKDKILSEEG [R6P],2.67
3,IPPYSRASLVGYQWLKDKILSEEG [K10V],2.14
4,IPPYPRASLKGYQWLKDKILSEEG [S5P],3.12
5,IPPYKRASLKGYQWLKDKILSEEG [S5K],2
6,IPPYSRASLKGYVWLKDKILSEEG [Q13V],2.08
7,IPPYSRASLKGYQWLKDKNLSEEG [I19N],2.86
8,IPPYSRASTKGYQWLKDKILSEEG [L9T],3.14
9,IPPYSRASNKGYQWLKDKILSEEG [L9N],3.15
10,IPPYSRASLKGYQWLKDKIFSEEG [L20F],1.98
11,IPPYSRASLKGYQWLWDKILSEEG [K16W],2.29
12,IPPYSRASLKGYQWLLDKILSEEG [K16L],1.02
13,ISPYSRASLKGYQWLKDKILSEEG [P2S],2.66
14,IPPYSRISLKGYQWLKDKILSEEG [A7I],1.93
15,IPPYSRASLKGYQWLKDKILSEES [G24S],2.49
16,VPPYSRASLKGYQWLKDKILSEEG [I1V],2.77
17,IPPMSRASLKGYQWLKDKILSEEG [Y4M],1.83
18,IPPQSRASLKGYQWLKDKILSEEG [Y4Q],2.96
19,IPPYSRASLKGYQWLKDKILSVEG [E22V],1.22
20,IPPYSRASLKMYQWLKDKILSEEG [G11M],2.08
21,IPPYSRASLKGYQWLKDSILSEEG [K18S],3.17
22,IPQYSRASLKGYQWLKDKILSEEG [P3Q],2.54

# Variants of: B2
# Assay: as above
# Conditions: c terminus: a fixed tail appended
row,Variant,protein stability index
1,LDMDEGTLSFIVDGQYLGVAFRGI [L24I],3.11
2,LDMDEGTLSFIVDGQYLGVAFRGC [L24C],2.43
3,LDMDEGTLSFIVDGQYLGVAFRGA [L24A],1.22
4,LDMDEGTLSFIVDGQYLGVAFRGS [L24S],1.88
5,LDMDEGTLSFIVDGQYLGVAFRGM [L24M],1.84
6,LDMDEGTLSFIVDGQYLGVAFRGH [L24H],3.29
7,LDMDEGTLSFSVDGQYLGVAFRGL [I11S],2.63
8,LDMDEGTLSFFVDGQYLGVAFRGL [I11F],4.16
9,LDMDEGTLSFQVDGQYLGVAFRGL [I11Q],2.31
10,LDMDEGTLSFRVDGQYLGVAFRGL [I11R],2.4
11,LDMDEGTLSFDVDGQYLGVAFRGL [I11D],1.68
12,LDMDEGTLSFEVDGQYLGVAFRGL [I11E],1.39
13,LDMDEGTLSFPVDGQYLGVAFRGL [I11P],2.25
14,LDMDEGTLSFMVDGQYLGVAFRGL [I11M],2.28
15,LDMDEGTLSFTVDGQYLGVAFRGL [I11T],2.74
16,LDMDEGTLSFLVDGQYLGVAFRGL [I11L],3.07
17,LDMDEGTLSFIVDGQPLGVAFRGL [Y16P],2.27
18,LDMDEGTLSFIVDGQRLGVAFRGL [Y16R],1.69
19,LDMDEGTLSFIVDGQKLGVAFRGL [Y16K],1.93
20,LDMDEGTLSFIVDGQLLGVAFRGL [Y16L],2.52
21,LDMDEGTLSFIVDGQWLGVAFRGL [Y16W],1.9
22,LDMDEGTLSFIVDGQSLGVAFRGL [Y16S],1.84
23,LDMDEGTLSFIVDGQMLGVAFRGL [Y16M],2.81
24,LDMDEGTLSFIVDGQFLGVAFRGL [Y16F],3.17

row,Variant,protein stability index
1,LDMDEGTLSFIVDGQALGVAFRGL [Y16A],1.57
2,LDMDEGTLSFIVDGQTLGVAFRGL [Y16T],2.34
3,LDMDEGTLSFIVDGQELGVAFRGL [Y16E],2.56
4,LDMDEGTDSFIVDGQYLGVAFRGL [L8D],2.21
5,LDMDEGTPSFIVDGQYLGVAFRGL [L8P],1.88
6,LDMDEGTMSFIVDGQYLGVAFRGL [L8M],2.72
7,LDMDEGTASFIVDGQYLGVAFRGL [L8A],1.27
8,LDMDEGTSSFIVDGQYLGVAFRGL [L8S],1.67
9,LDMDEGTGSFIVDGQYLGVAFRGL [L8G],1.76
10,LDMDEGTQSFIVDGQYLGVAFRGL [L8Q],2.12
11,LDMDEGTESFIVDGQYLGVAFRGL [L8E],1.94
12,LDMDEGTVSFIVDGQYLGVAFRGL [L8V],4.24
13,LDMDEGTLSFIVDGQYLGVAFRCL [G23C],1.86
14,LDMDEGTLSFIVDGQYLGVAFRVL [G23V],3.48
15,LDMDEGTLSFIVDGQYLGVAFRHL [G23H],2.5
16,LDMDEGTLSFIVDGQYLGVAFRAL [G23A],1.31
17,LDMDEGTLSFIVDGQYLGVAFRNL [G23N],2.38
18,LDMDEGTLSFIVDGQYLGVAFRFL [G23F],1.96
19,LDMDEGTLSFIVDGQYLGVAFRPL [G23P],2.1
20,LDMDEGTLEFIVDGQYLGVAFRGL [S9E],2.58
21,LDMDEGTLCFIVDGQYLGVAFRGL [S9C],2.76
22,LDMDEGTLLFIVDGQYLGVAFRGL [S9L],1.75
23,LDMDEGTLYFIVDGQYLGVAFRGL [S9Y],2.89
24,LDMDEGTLSFIVDWQYLGVAFRGL [G14W],2.71

row,Variant,protein stability index
1,LDMDEGTLSFIVDFQYLGVAFRGL [G14F],2.69
2,LDMDEGTLSFIVDAQYLGVAFRGL [G14A],2.58
3,LDMDEGTLSFIVDPQYLGVAFRGL [G14P],3.54
4,LDMDEGTLSFIVDKQYLGVAFRGL [G14K],2.44
5,LDMDEGTLSFIVDNQYLGVAFRGL [G14N],1.83
6,LDMDEGTLSFIVDSQYLGVAFRGL [G14S],2.17
7,LDMDEGTLSFIVDEQYLGVAFRGL [G14E],1.91
8,LDMDEGTLSFIVDQQYLGVAFRGL [G14Q],1.5
9,LDMDEGTLSFIVDGQYWGVAFRGL [L17W],2.72
10,LDMDEGTLSFIVDGQYTGVAFRGL [L17T],1.69
11,LDMDEGTLSFIVDGQYKGVAFRGL [L17K],1.87
12,LDMDEGDLSFIVDGQYLGVAFRGL [T7D],2.11
13,LDMDEGSLSFIVDGQYLGVAFRGL [T7S],3.54
14,LDMDEGHLSFIVDGQYLGVAFRGL [T7H],1.94
15,LDMDEGYLSFIVDGQYLGVAFRGL [T7Y],2.04
16,LDMDEGGLSFIVDGQYLGVAFRGL [T7G],2.27
17,LDMDEGFLSFIVDGQYLGVAFRGL [T7F],1.81
18,LDMDEGMLSFIVDGQYLGVAFRGL [T7M],2.53
19,LDMDEGWLSFIVDGQYLGVAFRGL [T7W],3.12
20,LDMDEGTLSFIVDGHYLGVAFRGL [Q15H],3.32
21,LDMDEGTLSFIVDGFYLGVAFRGL [Q15F],2.25
22,LDMDEGTLSFIVDGLYLGVAFRGL [Q15L],2.2
23,LDMDEGTLSFIVDGYYLGVAFRGL [Q15Y],2.62
24,LDMDEGTLSFIVDGVYLGVAFRGL [Q15V],2.19

# Reference: the supplement of paper PMC10567573
